# Tests used:
# [1] = molecular target: Bovine-biotinamidocaproyl-labeled Albumin (biotinylated-BSA) (bovine) (UniProt P02769); test: MA-SPCL, 33 nM Qdots-streptavidin on biotinylated-BSA coated gold disk, emission at 217 degrees; similar after 30 min at room temperature
# [2] = molecular target: Bovine-biotinamidocaproyl-labeled Albumin (biotinylated-BSA) (bovine) (UniProt P02769); test: MA-SPCL, 33 nM Qdots-streptavidin on biotinylated-BSA coated gold disk, in serum, 655 nm, 217 degrees
# [3] = molecular target: Bovine-biotinamidocaproyl-labeled Albumin (biotinylated-BSA) (bovine) (UniProt P02769); test: MA-SPCL, 33 nM Qdots-streptavidin on biotinylated-BSA coated gold disk, in whole blood, 655 nm, 217 degrees
# UniProt P02769, sequence (P02769 25-607 limits assumed): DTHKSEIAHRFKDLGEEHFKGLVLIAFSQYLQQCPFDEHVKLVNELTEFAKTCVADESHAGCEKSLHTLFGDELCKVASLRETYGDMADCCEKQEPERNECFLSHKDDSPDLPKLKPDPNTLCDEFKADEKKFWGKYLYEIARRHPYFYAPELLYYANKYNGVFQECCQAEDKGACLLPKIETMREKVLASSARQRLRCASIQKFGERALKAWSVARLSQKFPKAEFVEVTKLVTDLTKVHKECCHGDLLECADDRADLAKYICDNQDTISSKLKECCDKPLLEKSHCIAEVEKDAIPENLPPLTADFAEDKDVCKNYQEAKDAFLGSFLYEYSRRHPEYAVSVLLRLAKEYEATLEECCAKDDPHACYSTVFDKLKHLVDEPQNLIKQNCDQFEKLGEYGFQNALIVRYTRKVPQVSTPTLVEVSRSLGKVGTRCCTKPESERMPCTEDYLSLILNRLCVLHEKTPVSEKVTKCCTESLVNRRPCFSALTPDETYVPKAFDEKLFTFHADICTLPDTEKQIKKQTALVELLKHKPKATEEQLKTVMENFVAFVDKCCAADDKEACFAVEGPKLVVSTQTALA
substance,measurement,setting,value
Quantum dot 655-labeled streptavidin (Qdots-streptavidin) (from UniProt P22629 37-163),final luminescence intensity,[1],150 au
same,peak luminescence intensity in serum relative to buffer,[2],75%
same,peak luminescence intensity in whole blood relative to buffer,[3],20%

# Source: patent US20120107952A1
